Measurements as given in publication PMC10881741, “Structural modifications toward improved lead-203/lead-212 peptide-based image-guided alpha-particle radiopharmaceutical therapies for neuroendocrine tumors” (European Journal of Nuclear Medicine and Molecular Imaging, 2023).
Like-named read-outs stand apart in the source and are kept apart here.

Experiments:
[1] = In vivo biodistribution of ^203Pb-labeled peptides; parameters: species or system mice; conditions: female, athymic nu/nu, mouse, total radioactivity; for tissue uptake at 1 h / tissue uptake at 3 h / tissue uptake at 6 h / tissue uptake at 24 h: intravenous; for tissue to tissue ratio at 1 h / tissue to tissue ratio at 3 h / tissue to tissue ratio at 24 h: iv
Protocol: (§1) AR42J cells (5.0 × 10^6 cells/animal) were implanted subcutaneously on the left shoulder of female athymic nu/nu mice. […] Extra groups of mice were co-administered 37 kBq of ^203Pb-PSC-PEG2-TOC with DL-lysine (400 mg/kg) to determine the effect of amino acid on renal uptake of the radiopharmaceutical. Mice (n=3 per time point) were euthanized at 1, 3, and 24 h post-administration, and tumors and organs/tissues of interest were excised and weighed. The radioactivities of the samples were measured using the gamma counter.

AR42J tumor xenograft = experiment: In vivo biodistribution of ^203Pb-labeled peptides; parameters: species or system mice; conditions: DL-lysine 400 mg/kg, 3 h post-administration
Protocol: as §1

AR42J cells = experiment: Cellular uptake of ^203Pb-labeled peptides; assay type: cell-based, rat; conditions: 2 h post-incubation
Protocol: PSCTOC and PSC-PEG2-TOC were labeled with ^203Pb and purified via HPLC for high molar activities as descibed in the Supplementary Material and in Li and collaborators. The HPLC-purified ^203Pb-labeled peptides (3.4 kBq) were incubated with AR42J cells in 24-well plates (pre-coated with poly-D-lysine), which were plated at a density of 2.0 × 10^5 cells 2 days prior, in the binding medium at 37 °C for up to 120 min. The cells were then washed twice and lysed, and the radioactivities of the samples were determined (n=3).

Question: Which tissue uptake at 1 h ([1]; lung, 1 h, DL-lysine co-administered, read-out: Lung) does the source give for C[C@@H](O)[C@@H]1NC(=O)[C@H](CCCCN)NC(=O)[C@@H](Cc2c[nH]c3ccccc23)NC(=O)[C@H](Cc2ccc(O)cc2)NC(=O)[C@@H](NC(=O)[C@@H](Cc2ccccc2)NC(=O)CCOCCOCCNC(=O)CN2CCN(CC(=O)O)CCN(CC(N)=O)CCN(CC(=O)O)CC2)CSSC[C@@H](C(=O)N[C@H](CO)[C@@H](C)O)NC1=O [[^203Pb]Pb-PSC-PEG2-TOC, metal not drawn] here?
Answer: 4.48 ± 4.47 %ID/g

Question: And the tissue uptake at 3 h ([1]; lung, 3 h (Blocking): 10 nmol unlabeled PSC-PEG2-TOC co-administered, read-out: Lung)?
Answer: 0.26 ± 0.03 %ID/g

Question: What about the tissue uptake at 3 h ([1]; lung, 3 h, DL-lysine co-administered, read-out: Lung) of the same compound?
Answer: 4.76 ± 3.19 %ID/g

Question: What about the tissue uptake at 6 h ([1]; lung, DL-lysine co-administered, read-out: Lung) of the same compound?
Answer: 5.6 ± 1.27 %ID/g

Question: And the tissue uptake at 24 h ([1]; lung, 24 h, DL-lysine co-administered, read-out: Lung)?
Answer: 1.11 ± 0.74 %ID/g

Question: And the tissue uptake at 1 h ([1]; muscle, 37 kBq, 1 h post-administration, read-out: Muscle)?
Answer: 0.29 ± 0.27 %ID/g

Question: And the tissue uptake at 3 h ([1]; muscle, 37 kBq, 3 h (No Lys), Table S4 study, read-out: Muscle)?
Answer: 0.17 ± 0.1 %ID/g

Question: What about the tissue uptake at 3 h ([1]; muscle, 37 kBq, 3 h post-administration, read-out: Muscle) of the same compound?
Answer: 0.03 ± 0.01 %ID/g

Question: What about the tissue uptake at 24 h ([1]; muscle, 37 kBq, 24 h post-administration, read-out: Muscle) of the same compound?
Answer: 0.02 ± 0.01 %ID/g

Question: And the tissue uptake at 1 h ([1]; muscle, 1 h, DL-lysine co-administered, read-out: Muscle)?
Answer: 0.48 ± 0.26 %ID/g

Question: And the tissue uptake at 3 h ([1]; muscle, 3 h (Blocking): 10 nmol unlabeled PSC-PEG2-TOC co-administered, read-out: Muscle)?
Answer: 0.06 ± 0.03 %ID/g

Question: And the tissue uptake at 3 h ([1]; muscle, 3 h, DL-lysine co-administered, read-out: Muscle)?
Answer: 0.03 ± 0.01 %ID/g

Question: What about the tissue uptake at 6 h ([1]; muscle, DL-lysine co-administered, read-out: Muscle) of the same compound?
Answer: 0.02 ± 0.02 %ID/g

Question: What about the tissue uptake at 24 h ([1]; muscle, 24 h, DL-lysine co-administered, read-out: Muscle) of the same compound?
Answer: 0.01 ± 0.01 %ID/g

Question: And the tissue uptake at 3 h ([1]; pancreas, 37 kBq, 3 h (No Lys), Table S4 study, read-out: Pancreas)?
Answer: 2.29 ± 1.63 %ID/g

Question: And the tissue uptake at 1 h ([1]; pancreas, 1 h, DL-lysine co-administered, read-out: Pancreas)?
Answer: 5.04 ± 1.33 %ID/g

Question: And the tissue uptake at 3 h ([1]; pancreas, 3 h (Blocking): 10 nmol unlabeled PSC-PEG2-TOC co-administered, read-out: Pancreas)?
Answer: 0.22 ± 0.04 %ID/g

Question: And the tissue uptake at 3 h ([1]; pancreas, 3 h, DL-lysine co-administered, read-out: Pancreas)?
Answer: 2.1 ± 0.68 %ID/g

Question: What about the tissue uptake at 6 h ([1]; pancreas, DL-lysine co-administered, read-out: Pancreas) of the same compound?
Answer: 0.75 ± 0.16 %ID/g

Question: And the tissue uptake at 24 h ([1]; pancreas, 24 h, DL-lysine co-administered, read-out: Pancreas)?
Answer: 0.33 ± 0.08 %ID/g

Question: And the tissue uptake at 1 h ([1]; small intestine, 37 kBq, 1 h post-administration, read-out: Small intestine)?
Answer: 1.34 ± 0.35 %ID/g

Question: What about the tissue uptake at 3 h ([1]; small intestine, 37 kBq, 3 h (No Lys), Table S4 study, read-out: Small intestine) of the same compound?
Answer: 0.6 ± 0.11 %ID/g

Question: And the tissue uptake at 3 h ([1]; small intestine, 37 kBq, 3 h post-administration, read-out: Small intestine)?
Answer: 1.85 ± 0.22 %ID/g

Question: What about the tissue uptake at 24 h ([1]; small intestine, 37 kBq, 24 h post-administration, read-out: Small intestine) of the same compound?
Answer: 0.17 ± 0.01 %ID/g

Question: And the tissue uptake at 1 h ([1]; small intestine, 1 h, DL-lysine co-administered, read-out: Small intestine)?
Answer: 1.9 ± 0.74 %ID/g

Question: And the tissue uptake at 3 h ([1]; small intestine, 3 h (Blocking): 10 nmol unlabeled PSC-PEG2-TOC co-administered, read-out: Small intestine)?
Answer: 0.81 ± 0.71 %ID/g

Question: And the tissue uptake at 3 h ([1]; small intestine, 3 h, DL-lysine co-administered, read-out: Small intestine)?
Answer: 2.37 ± 0.78 %ID/g

Question: What about the tissue uptake at 6 h ([1]; small intestine, DL-lysine co-administered, read-out: Small intestine) of the same compound?
Answer: 0.94 ± 0.32 %ID/g

Question: What about the tissue uptake at 24 h ([1]; small intestine, 24 h, DL-lysine co-administered, read-out: Small intestine) of the same compound?
Answer: 0.15 ± 0.02 %ID/g

Question: What about the tissue uptake at 1 h ([1]; spleen, 37 kBq, 1 h post-administration, read-out: Spleen) of the same compound?
Answer: 1.21 ± 0.17 %ID/g

Question: What about the tissue uptake at 3 h ([1]; spleen, 37 kBq, 3 h (No Lys), Table S4 study, read-out: Spleen) of the same compound?
Answer: 0.97 ± 0.47 %ID/g

Question: And the tissue uptake at 3 h ([1]; spleen, 37 kBq, 3 h post-administration, read-out: Spleen)?
Answer: 0.54 ± 0.29 %ID/g

Question: And the tissue uptake at 24 h ([1]; spleen, 37 kBq, 24 h post-administration, read-out: Spleen)?
Answer: 0.28 ± 0.07 %ID/g

Question: And the tissue uptake at 1 h ([1]; spleen, 1 h, DL-lysine co-administered, read-out: Spleen)?
Answer: 1.04 ± 0.4 %ID/g

Question: And the tissue uptake at 3 h ([1]; spleen, 3 h (Blocking): 10 nmol unlabeled PSC-PEG2-TOC co-administered, read-out: Spleen)?
Answer: 0.14 ± 0.07 %ID/g

Question: And the tissue uptake at 3 h ([1]; spleen, 3 h, DL-lysine co-administered, read-out: Spleen)?
Answer: 0.81 ± 0.3 %ID/g

Question: And the tissue uptake at 6 h ([1]; spleen, DL-lysine co-administered, read-out: Spleen)?
Answer: 0.73 ± 0.17 %ID/g

Question: And the tissue uptake at 24 h ([1]; spleen, 24 h, DL-lysine co-administered, read-out: Spleen)?
Answer: 0.41 ± 0.28 %ID/g

Question: What about the tissue uptake at 3 h ([1]; stomach, 37 kBq, 3 h (No Lys), Table S4 study, read-out: Stomach) of the same compound?
Answer: 0.95 ± 0.13 %ID/g

Question: And the tissue uptake at 1 h ([1]; stomach, 1 h, DL-lysine co-administered, read-out: Stomach)?
Answer: 1.46 ± 0.32 %ID/g

Question: And the tissue uptake at 3 h ([1]; stomach, 3 h (Blocking): 10 nmol unlabeled PSC-PEG2-TOC co-administered, read-out: Stomach)?
Answer: 0.36 ± 0.15 %ID/g

Question: What about the tissue uptake at 3 h ([1]; stomach, 3 h, DL-lysine co-administered, read-out: Stomach) of the same compound?
Answer: 2.36 ± 0.44 %ID/g

Question: What about the tissue uptake at 6 h ([1]; stomach, DL-lysine co-administered, read-out: Stomach) of the same compound?
Answer: 0.78 ± 0.2 %ID/g

Question: What about the tissue uptake at 24 h ([1]; stomach, 24 h, DL-lysine co-administered, read-out: Stomach) of the same compound?
Answer: 0.3 ± 0.12 %ID/g

Question: What about the tissue uptake at 1 h ([1]; tumor, 37 kBq, 1 h post-administration, read-out: Tumor) of the same compound?
Answer: 28.2 ± 8.63 %ID/g

Question: And the tissue uptake at 3 h ([1]; tumor, 37 kBq, 3 h (No Lys), Table S4 study, read-out: Tumor)?
Answer: 19.8 ± 1.61 %ID/g

Question: And the tissue uptake at 3 h ([1]; tumor, 37 kBq, 3 h post-administration, read-out: Tumor)?
Answer: 22.8 ± 2.8 %ID/g

Question: And the tissue uptake at 24 h ([1]; tumor, 37 kBq, 24 h post-administration, read-out: Tumor)?
Answer: 12.2 ± 3.81 %ID/g

Question: What about the tissue uptake at 1 h ([1]; tumor, 1 h, DL-lysine co-administered, read-out: Tumor) of the same compound?
Answer: 24.4 ± 1.85 %ID/g

Question: What about the tissue uptake at 3 h ([1]; tumor, 3 h (Blocking): 10 nmol unlabeled PSC-PEG2-TOC co-administered, read-out: Tumor) of the same compound?
Answer: 2.41 ± 0.46 %ID/g

Question: And the tissue uptake at 3 h ([1]; tumor, 3 h, DL-lysine co-administered, read-out: Tumor)?
Answer: 22.9 ± 1.09 %ID/g

Question: What about the tissue uptake at 6 h ([1]; tumor, DL-lysine co-administered, read-out: Tumor) of the same compound?
Answer: 18.9 ± 1.86 %ID/g

Question: What about the tissue uptake at 24 h ([1]; tumor, 24 h, DL-lysine co-administered, read-out: Tumor) of the same compound?
Answer: 7.44 ± 0.41 %ID/g

Question: And the tissue to tissue ratio at 1 h ([1]; tumor/blood, 37 kBq, 1 h post-administration, read-out: Tumor/blood ratio)?
Answer: 78.3

Question: What about the tissue to tissue ratio at 3 h ([1]; tumor/blood, 37 kBq, 3 h post-administration, read-out: Tumor/blood ratio) of the same compound?
Answer: 456

Question: What about the tissue to tissue ratio at 24 h ([1]; tumor/blood, 37 kBq, 24 h post-administration, read-out: Tumor/blood ratio) of the same compound?
Answer: 610

Question: What about the tissue to tissue ratio at 1 h ([1]; tumor/kidneys, 37 kBq, 1 h post-administration, read-out: Tumor/kidneys ratio) of the same compound?
Answer: 1.37

Question: What about the tissue to tissue ratio at 3 h ([1]; tumor/kidneys, 37 kBq, 3 h post-administration, read-out: Tumor/kidneys ratio) of the same compound?
Answer: 1.44

Question: And the tissue to tissue ratio at 24 h ([1]; tumor/kidneys, 37 kBq, 24 h post-administration, read-out: Tumor/kidneys ratio)?
Answer: 8.36

Question: What about the tissue to tissue ratio at 1 h ([1]; tumor/liver, 37 kBq, 1 h post-administration, read-out: Tumor/liver ratio) of the same compound?
Answer: 78.3

Question: What about the tissue to tissue ratio at 3 h ([1]; tumor/liver, 37 kBq, 3 h post-administration, read-out: Tumor/liver ratio) of the same compound?
Answer: 99.1

Question: And the tissue to tissue ratio at 24 h ([1]; tumor/liver, 37 kBq, 24 h post-administration, read-out: Tumor/liver ratio)?
Answer: 153

Question: And the tissue to tissue ratio at 1 h ([1]; tumor/lung, 37 kBq, 1 h post-administration, read-out: Tumor/lung ratio)?
Answer: 7.87

Question: What about the tissue to tissue ratio at 3 h ([1]; tumor/lung, 37 kBq, 3 h post-administration, read-out: Tumor/lung ratio) of the same compound?
Answer: 60

Question: What about the tissue to tissue ratio at 24 h ([1]; tumor/lung, 37 kBq, 24 h post-administration, read-out: Tumor/lung ratio) of the same compound?
Answer: 8.36

Question: What about the tissue to tissue ratio at 1 h ([1]; tumor/muscle, 37 kBq, 1 h post-administration, read-out: Tumor/muscle ratio) of the same compound?
Answer: 97.2

Question: And the tissue to tissue ratio at 3 h ([1]; tumor/muscle, 37 kBq, 3 h post-administration, read-out: Tumor/muscle ratio)?
Answer: 760

Question: What about the tissue to tissue ratio at 24 h ([1]; tumor/muscle, 37 kBq, 24 h post-administration, read-out: Tumor/muscle ratio) of the same compound?
Answer: 610

Question: And the “Reduction of renal accumulation by co-administration of DL-lysine” value (AR42J tumor xenograft)?
Answer: 56%

Question: And the “Cellular uptake, factor vs. [^203Pb]Pb-PSCTOC” value (AR42J cells)?
Answer: 4

Question: What about the “Cellular uptake, fold vs. [^203Pb]Pb-DOTATOC” value (AR42J cells) of the same compound?
Answer: 21 fold

Question: And the Cellular uptake (AR42J cells; 37 °C)?
Answer: 18%
